The source of these data is US20230167164A1 (IMMUNOWAKE, published 2023).

A word on the Kd: it is the equilibrium constant for the complex coming apart.

Test [1] addresses human PD-1 overexpressed on HEK-Blue reporter cells (human, UniProt Q15116 25-288). Nature of the test: cell-based or functional assay.
Test [2] deals with human IL-12 receptor complex (human, UniProt P42701 24-662; Q99665 24-862). Briefly: cell-based or functional assay.
Test [3] deals with T1, human PD-1 (human, UniProt Q15116 25-167, limits assumed).
T1 construct: nivolumab is called an anti-human PD-1 antibody; also called hPD-1
Nature of the test: PD-L1-Fc format, calibrated on PD-L1(wt)-Fc binding affinity.

Test [4] addresses T2, mouse PD-1 (mouse, UniProt Q02242 25-167, limits assumed).
T2 construct: also called mPD-1
T2 sequence (looked up): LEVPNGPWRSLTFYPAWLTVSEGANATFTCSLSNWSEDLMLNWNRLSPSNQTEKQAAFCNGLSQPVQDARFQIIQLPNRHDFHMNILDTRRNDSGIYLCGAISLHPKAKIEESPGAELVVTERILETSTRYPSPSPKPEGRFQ
The test is described as above.

Numbering of substitutions follows the chain as printed. Names may count otherwise.

T1 sequence (Q15116 25-167 limits assumed): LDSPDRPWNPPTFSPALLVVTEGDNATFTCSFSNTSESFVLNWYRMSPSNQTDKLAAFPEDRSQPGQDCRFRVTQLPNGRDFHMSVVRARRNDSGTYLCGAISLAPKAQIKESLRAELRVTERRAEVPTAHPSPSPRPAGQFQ
Sequence of human PD-1 overexpressed on HEK-Blue reporter cells (Q15116 25-288): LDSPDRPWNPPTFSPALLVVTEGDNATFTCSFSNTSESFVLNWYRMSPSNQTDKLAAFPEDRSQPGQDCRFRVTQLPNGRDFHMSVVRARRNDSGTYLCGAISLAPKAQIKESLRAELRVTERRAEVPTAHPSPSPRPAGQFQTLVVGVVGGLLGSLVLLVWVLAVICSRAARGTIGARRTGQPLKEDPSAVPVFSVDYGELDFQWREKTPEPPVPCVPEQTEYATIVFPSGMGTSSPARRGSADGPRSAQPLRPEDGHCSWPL
Sequence of human IL-12 receptor complex (Q99665 24-862, chain 2 of 2, other chains not shown): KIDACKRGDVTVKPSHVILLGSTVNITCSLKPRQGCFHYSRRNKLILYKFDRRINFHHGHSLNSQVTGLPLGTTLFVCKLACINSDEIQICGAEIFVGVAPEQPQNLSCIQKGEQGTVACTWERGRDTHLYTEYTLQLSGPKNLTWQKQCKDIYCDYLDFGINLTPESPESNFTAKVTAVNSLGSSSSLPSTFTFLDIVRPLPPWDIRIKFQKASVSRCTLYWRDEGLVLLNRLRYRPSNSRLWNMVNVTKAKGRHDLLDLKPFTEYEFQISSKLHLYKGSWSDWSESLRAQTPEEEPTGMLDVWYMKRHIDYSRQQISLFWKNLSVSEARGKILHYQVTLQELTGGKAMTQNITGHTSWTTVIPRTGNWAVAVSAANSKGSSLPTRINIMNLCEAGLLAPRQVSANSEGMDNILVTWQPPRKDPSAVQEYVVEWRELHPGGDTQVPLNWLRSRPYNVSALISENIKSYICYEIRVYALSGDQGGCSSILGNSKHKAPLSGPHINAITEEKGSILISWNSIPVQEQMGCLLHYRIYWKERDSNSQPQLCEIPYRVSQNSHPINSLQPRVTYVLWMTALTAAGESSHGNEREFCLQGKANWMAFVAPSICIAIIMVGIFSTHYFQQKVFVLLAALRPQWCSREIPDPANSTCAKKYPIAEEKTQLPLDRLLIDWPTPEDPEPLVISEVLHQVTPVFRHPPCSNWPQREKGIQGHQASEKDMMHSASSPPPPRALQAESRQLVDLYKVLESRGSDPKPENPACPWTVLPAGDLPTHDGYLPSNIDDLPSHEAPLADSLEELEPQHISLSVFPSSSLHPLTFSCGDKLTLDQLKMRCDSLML

B1: PD-L1(mut2)-Fc/IL-12(E59A/F60A) (Fc fusion)
chain 1: FTVTVPKDLYVVEYGSNMTIECKFPVEKQLDLAALQVYWMMEDKNIIQFVHGEEDLKVQHSSYRQRARLLKDQLSLGNAALQITDVKLQDAGVYTCLIAYKGADYKRITVKVNAPYNKINQRILVVDPVTSEHELTCQAEGYPKAEVIWTSSDHQVLSGKTTTTNSKREEKLFNVTSTLRINTTTNEIFYCTFRRLDPEENHTAELVIPELPLAHPPNERGGGGSGGGDKTHTCPPCPAPEDEGGPSVFLFPPKPKDTLMISRTPEVTCVVVDVSHEDPEVKFNWYVDGVEVHNAKTKPREEQYNSTYRVVSVLTVLHQDWLNGKEYKCKVSNKALPAPIEKTISKAKGQPREPQVYVYPPSREEMTKNQVSLTCLVKGFYPSDIAVEWESNGQPENNYKTTPPVLDEDGSFALVSKLTVDKSRWQQGNVFSCSVMHEALHNHYTQKSLSLSPGKGGGGSGGGIWELKKDVYVVELDWYPDAPGEMVVLTCDTPEEDGITWTLDQSSEVLGSGKTLTIQVKAAGDAGQYTCHKGGEVLSHSLLLLHKKEDGIWSTDILKDQKEPKNKTFLRCEAKNYSGRFTCWWLTTISTDLTFSVKSSRGSSDPQGVTCGAATLSAERVRGDNKEYEYSVECQEDSACPAAEESLPIEVMVDAVHKLKYENYTSSFFIRDIIKPDPPKNLQLKPLKNSRQVEVSWEYPDTWSTPHSYFSLTFCVQVQGKSKREKKDRVFTDKTSATVICRKNASISVRAQDRYYSSSWSEWASVPCSGGGGSGGGSGGGGSRNLPVATPDPGMFPCLHHSQNLLRAVSNMLQKARQTLEFYPCTSEEIDHEDITKDKTSTVEACLPLELTKNESCLNSRETSFITNGSCLASRKTSFMMALCLSSIYEDLKMYQVEFKTMNAKLLMDPKRQIFLDQNMLAVIDELMQALNFNSETVPQKSSLEEPDFYKTKIKLCILLHAFRIRAVTIDRVMSYLNAS
chain 2: FTVTVPKDLYVVEYGSNMTIECKFPVEKQLDLAALQVYWMMEDKNIIQFVHGEEDLKVQHSSYRQRARLLKDQLSLGNAALQITDVKLQDAGVYTCLIAYKGADYKRITVKVNAPYNKINQRILVVDPVTSEHELTCQAEGYPKAEVIWTSSDHQVLSGKTTTTNSKREEKLFNVTSTLRINTTTNEIFYCTFRRLDPEENHTAELVIPELPLAHPPNERGGGGSGGGDKTHTCPPCPAPEKKGGPSVFLFPPKPKDTLMISRTPEVTCVVVDVSHEDPEVKFNWYVDGVEVHNAKTKPREEQYNSTYRVVSVLTVLHQDWLNGKEYKCKVSNKALPAPIEKTISKAKGQPREPQVYVLPPSREEMTKNQVSLLCLVKGFYPSDIAVEWESNGQPENRYMTWPPVLDSDGSFFLYSKLTVDKSRWQQGNVFSCSVMHEALHNHYTQKSLSLSPGK
B1: the “IL-12 signal transduction, % of rIL-12, HEK-IL-12-PD-1 cells” value in test [1] amounted to 25%. The “IL-12 signal transduction, % of rIL-12, HEK-IL-12 cells” value in test [2] came to 1%.

B2: PD-L1(mut2)-Fc (Fc fusion)
chain 1: B1 chain 2 with K242D, K243E, L359Y, L374T, R398N, M400K, W402T, S408E, F413A, Y415V
chain 2: B1 chain 2
notes: also called PD-L1(I54Q/E58M/R113T/M115L/S117A/G119K)
B2: the Kd in test [3] was found to be 150 nM; in test [4], 120 nM.

B3: PD-L1(mut3)-Fc (Fc fusion)
chain 1: FTVTVPKDLYVVEYGSNMTIECKFPVEKQLDLAALQVYWEMEDKNIIQFVHGEEDLKVQHSSYRQRARLLKDQLSLGNAALQITDVKLQDAGVYTCLIAYKGADYKRITVKVNAPYNKINQRILVVDPVTSEHELTCQAEGYPKAEVIWTSSDHQVLSGKTTTTNSKREEKLFNVTSTLRINTTTNEIFYCTFRRLDPEENHTAELVIPELPLAHPPNERDKTHTCPPCPAPEDEGGPSVFLFPPKPKDTLMISRTPEVTCVVVDVSHEDPEVKFNWYVDGVEVHNAKTKPREEQYNSTYRVVSVLTVLHQDWLNGKEYKCKVSNKALPAPIEKTISKAKGQPREPQVYVYPPSREEMTKNQVSLTCLVKGFYPSDIAVEWESNGQPENNYKTTPPVLDEDGSFALVSKLTVDKSRWQQGNVFSCSVMHEALHNHYTQKSLSLSPGK
chain 2: B3 chain 1 with D234K, E235K, Y351L, T366L, N390R, K392M, T394W, E400S, A405F, V407Y
notes: also called I54Q/R113T/M115L/S117A/G119K
Take B3: the Kd amounted to 910 nM in test [3] and 820 nM in test [4].
